{"source": "paper PMC6596341", "binders": {"B1": {"name": "S100B (natural protein)", "chain": "MSELEKAMVALIDVFHQYSGREGDKHKLKKSELKELINNELSHFLEEIKEQEVVDKVMETLDNDGDGECDFQEFMAFVAMVTTACHEFFEHE"}}, "molecular_target": "Aβ42 (human) (UniProt P05067)", "sequence (P05067 672-713)": "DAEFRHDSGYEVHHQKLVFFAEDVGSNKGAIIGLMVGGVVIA", "data": [{"binder": "B1", "values": [{"measurement": "reaction half time (t1/2) of ThT-monitored fibril formation of 5 μM monomeric Aβ42 in the presence of 15 μM S100B, 50 mM Hepes pH 7.4, 1.1 mM CaCl2, 37°C, quiescent (Aβ42 alone t1/2 = 0.8 h)", "result": 2.2, "unit": "h"}]}]}
